From patent US20210270842A1 (DYAX, published 2021)

Biological target: T1, intact high molecular weight kininogen (HMWK) (Homo sapiens, UniProt P01042 19-644)
T1 construct: also called intact HMWK; 1-chain HMWK
T1 sequence: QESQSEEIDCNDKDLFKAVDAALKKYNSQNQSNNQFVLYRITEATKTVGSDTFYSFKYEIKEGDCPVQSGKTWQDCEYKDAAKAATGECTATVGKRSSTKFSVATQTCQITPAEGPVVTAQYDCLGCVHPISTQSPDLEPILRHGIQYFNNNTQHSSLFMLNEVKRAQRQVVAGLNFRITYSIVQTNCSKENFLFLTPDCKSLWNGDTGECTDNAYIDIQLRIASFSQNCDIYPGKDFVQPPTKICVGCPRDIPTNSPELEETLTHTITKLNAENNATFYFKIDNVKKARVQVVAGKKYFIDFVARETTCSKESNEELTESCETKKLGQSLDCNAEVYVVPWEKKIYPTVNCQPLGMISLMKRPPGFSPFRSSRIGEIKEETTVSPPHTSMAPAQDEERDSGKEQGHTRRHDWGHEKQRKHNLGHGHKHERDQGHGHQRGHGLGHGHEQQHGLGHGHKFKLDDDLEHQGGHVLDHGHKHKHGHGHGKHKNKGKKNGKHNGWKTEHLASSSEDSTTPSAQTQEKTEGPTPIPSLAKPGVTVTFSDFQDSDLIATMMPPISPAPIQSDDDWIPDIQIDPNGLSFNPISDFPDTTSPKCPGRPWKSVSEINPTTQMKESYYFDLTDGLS
Experiment: optimized sandwich ELISA: M004-B04 capture, detection 11H05 + 13B12; value = C of the printed 4-P fit; the curve has no upper plateau in the range: last point about 0.95 at about 250 ng/mL, fitted line about 1.5 at 1000 ng/mL, so C and D are extrapolated
Experimental: The following day, the plate was washed and then blocked with 2% BSA (Protease/IgG free) in PBS buffer. Following a wash, samples containing cleaved HMWK in 0.1% BSA buffer in PBS with 0.05% Tween-20 (2-Chain HMWK assay buffer). Purified protein standards (e.g., 2-chain HMWK, intact HMWK or LMWK) were spiked into HMWK-deficient plasma and diluted 1:320 in 2-chain HMWK assay buffer. Following plate washing with PBST, a mixture of 2 mouse monoclonal antibodies (11H05 and 13B12) at 1 μg/mL in 2-chain HMWK assay buffer were added for 1 hour at room temperature. Unbound detection antibodies were washed and a 1:2000 dilution of goat anti-mouse secondary antibody conjugated to horseradish peroxidase (HRP) was added. The assay containing the secondary antibody was incubated for 1 hour at room temperature, and unbound secondary antibody was removed by washing with 2-chain HMWK assay buffer. Signal was detected by the addition of 3,3′,5,5′-tetramethylbenzidine (TMB), an HRP substrate. The reaction was stopped with phosphoric acid. Hydrolysis of a TMB substrate was detected using a microplate reader at 450 nm-630 nm (FIG. 3). […] Using these immunoassay conditions, specifically binding to cleaved HMWK was detected.

B1: 559B-M0004-B04 (Fab, V domains shown)
VH: EVQLLESGGGLVQPGGSLRLSCAASGFTFSFYVMVWVRQAPGKGLEWVSGISPSGGNTAYADSVKGRFTISRDNSKNTLYLQMNSLRAEDTAVYYCARKLFYYDDTKGYFDFWGQGTLVTVSS
VL: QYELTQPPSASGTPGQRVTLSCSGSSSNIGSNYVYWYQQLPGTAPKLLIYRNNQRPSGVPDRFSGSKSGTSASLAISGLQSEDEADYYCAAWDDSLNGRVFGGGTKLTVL
notes: also called M004-B04
EC50: 0.355 µg/mL
